# Measurements published in article PMC3596311, “PTB-Associated Splicing Factor (PSF) Is a PPARγ-Binding Protein and Growth Regulator of Colon Cancer Cells” (PLoS ONE, 2013).
# T1: PSF, full-length, fused to the GAL4 DNA-binding domain (pFN11A-PSF) (human, UniProt P23246 1-707)
# T1 construct: PTB-associated splicing factor (PSF), human, full-length cDNA (GenBank BC051192), 707 amino acids; CheckMate/Flexi Vector Mammalian Two-Hybrid System (Promega), vector pFN11A; also called Gal4-PSF; source: CV-1 cells, transiently transfected, mammalian two-hybrid fusion
# T1 sequence (looked up): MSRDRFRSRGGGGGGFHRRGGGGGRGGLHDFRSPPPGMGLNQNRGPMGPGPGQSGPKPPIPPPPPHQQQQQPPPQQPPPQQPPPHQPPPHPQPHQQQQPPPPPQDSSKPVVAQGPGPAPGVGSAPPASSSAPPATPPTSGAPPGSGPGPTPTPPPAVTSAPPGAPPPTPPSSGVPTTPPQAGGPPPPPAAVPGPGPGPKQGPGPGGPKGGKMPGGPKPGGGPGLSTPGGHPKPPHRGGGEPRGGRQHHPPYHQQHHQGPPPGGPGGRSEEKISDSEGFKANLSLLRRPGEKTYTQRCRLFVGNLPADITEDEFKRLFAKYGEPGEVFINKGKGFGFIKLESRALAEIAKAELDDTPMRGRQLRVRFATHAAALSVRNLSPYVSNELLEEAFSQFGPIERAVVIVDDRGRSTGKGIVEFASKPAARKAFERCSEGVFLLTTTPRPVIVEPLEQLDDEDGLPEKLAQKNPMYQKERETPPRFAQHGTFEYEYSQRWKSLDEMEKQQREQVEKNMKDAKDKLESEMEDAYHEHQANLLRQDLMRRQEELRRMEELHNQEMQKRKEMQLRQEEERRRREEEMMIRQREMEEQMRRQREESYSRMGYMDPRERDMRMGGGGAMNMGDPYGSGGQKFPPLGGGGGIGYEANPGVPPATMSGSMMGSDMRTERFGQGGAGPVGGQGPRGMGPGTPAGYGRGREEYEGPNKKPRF
# B1: PPARγ1, full-length, fused to the VP16 activation domain (pFN10A-PPARγ1) (natural protein, UniProt P37231-2 1-477, looked up)
# chain: MTMVDTEMPFWPTNFGISSVDLSVMEDHSHSFDIKPFTTVDFSSISTPHYEDIPFTRTDPVVADYKYDLKLQEYQSAIKVEPASPPYYSEKTQLYNKPHEEPSNSLMAIECRVCGDKASGFHYGVHACEGCKGFFRRTIRLKLIYDRCDLNCRIHKKSRNKCQYCRFQKCLAVGMSHNAIRFGRMPQAEKEKLLAEISSDIDQLNPESADLRALAKHLYDSYIKSFPLTKAKARAILTGKTTDKSPFVIYDMNSLMMGEDKIKFKHITPLQEQSKEVAIRIFQGCQFRSVEAVQEITEYAKSIPGFVNLDLNDQVTLLKYGVHEIIYTMLASLMNKDGVLISEGQGFMTREFLKSLRKPFGDFMEPKFEFAVKFNALELDDSDLAIFIAVIILSGDRPGLLNVKPIEDIQDNLLQALELQLKLNHPESSQLFAKLLQKMTDLRQIVTEHVQLLQVIKKTETDMSLHPLLQEIYKDLY
# notes: CheckMate/Flexi Vector Mammalian Two-Hybrid System (Promega), vector pFN10A; also called VP16-PPARγ; VP-16-PPARγ1; source: CV-1 cells, transiently transfected, mammalian two-hybrid fusion
# Target: T1, PSF, full-length, fused to the GAL4 …
# Assay: two-hybrid; mammalian two-hybrid in CV-1 cells: GAL4 DNA-binding domain-PSF (pFN11A) and VP16-PPARγ1 (pFN10A), GAL4-UAS luciferase reporter; also with rosiglitazone 0.1–10 µM, which did not affect the interaction
# Conditions: partners not purified
binder,measurement,value
B1,fold induction of GAL4 promoter-driven luciferase over empty vectors,3 fold
